This passage reports Kd, koff and kon results from patent US20200055959A1 (UCB, published 2020).

Test [1] concerns the target T1, human serum albumin (human, UniProt P02768 25-609).
T1 construct: Analyte in SPR, titrated 50-6.25 nM; also called HSA
Put plainly: SPR, BIAcore T100; construct captured by anti-human F(ab')2 Fab or anti-CH1 mAb; HSA 50-6.25 nM as analyte; 1:1 model. The method, then:
(§1) Single linker Fab-dsFv samples were captured to the sensor chip surface using either a human F(ab′)₂-specific goat Fab (Jackson ImmunoResearch, 109-006-097) or an in-house generated anti human CH1 monoclonal antibody. Covalent immobilisation of the capture antibody was achieved by standard amine coupling chemistry.
(§2) For kinetic assays, either a titration of human serum albumin 50-6.25 nM, or a single concentration of OX40 of 25 nM was performed. A blank flow-cell was used for reference subtraction and buffer-blank injections were included to subtract instrument noise and drift.
(§3) Kinetic parameters were determined by simultaneous global-fitting of the resulting sensorgrams to a standard 1:1 binding model using BIAcore T100 Evaluation software.
On the technique in general: Surface plasmon resonance follows binding to a sensor surface in real time, without labels.

Test [2] addresses T1, human serum albumin. Description: SPR, BIAcore T100; construct captured; HSA 50-6.25 nM as analyte; 1:1 model; repeat at end of run. The method, then: as §1, §2, §3
For test [3], the target named is T1, human serum albumin. Put plainly: SPR, BIAcore T100; construct captured; HSA 50-6.25 nM as analyte; 1:1 model; plasmid ratio 1:1:1. The method, then:
as §1, §2, §3

Test [4] has as its target T1, human serum albumin. Put plainly: SPR, BIAcore T100; construct captured; HSA 50-6.25 nM as analyte; 1:1 model; plasmid ratio 2:1:2. The procedure:
as §1, §2, §3

Test [5] has as its target T1, human serum albumin. Description: SPR, BIAcore T100; construct captured; HSA 50-6.25 nM as analyte; 1:1 model; plasmid ratio 1:1:2. The procedure: as §1, §2, §3
The target in test [6] is T1, human serum albumin. Description: SPR, BIAcore T100; construct captured; HSA 50-6.25 nM as analyte; 1:1 model; plasmid ratio printed 1:1:1 (second such row). The procedure: as §1, §2, §3
Test [7] concerns the target T1, human serum albumin. Put plainly: SPR, BIAcore T100; construct captured; HSA 50-6.25 nM as analyte; 1:1 model. The method, then: as §1, §2, §3

B1: A26Fab-645dsFv (bispecific antibody)
heavy: EVQLVESGGGLVQPGGSLRLSCAASGFTFTNYGIHWIRQAPGKGLEWVASISPSGGLTYYRDSVKGRFTISRDDAKNSPYLQMNSLRAEDTAVYYCATGGEGIFDYWGQGTLVTVSSASTKGPSVFPLAPSSKSTSGGTAALGCLVKDYFPEPVTVSWNSGALTSGVHTFPAVLQSSGLYSLSSVVTVPSSSLGTQTYICNVNHKPSNTKVDKKVEPKSCSGGGGSGGGGTGGGGSEVQLLESGGGLVQPGGSLRLSCAVSGIDLSNYAINWVRQAPGKCLEWIGIIWASGTTFYATWAKGRFTISRDNSKNTVYLQMNSLRAEDTAVYYCARTVPGYSTAPYFDLWGQGTLVTVSS
light: DIQMTQSPSSLSASVGDRVTITCRATQSIYNALAWYQQKPGKAPKLLIYNANTLHTGVPSRFSASGSGTDSTLTISSLQPEDFATYYCQQYYDYPLTFGGGTKVEIKRTVAAPSVFIFPPSDEQLKSGTASVVCLLNNFYPREAKVQWKVDNALQSGNSQESVTEQDSKDSTYSLSSTLTLSKADYEKHKVYACEVTHQGLSSPVTKSFNRGECSGGGGSGGGGSGGGGSDIQMTQSPSSVSASVGDRVTITCQSSPSVWSNFLSWYQQKPGKAPKLLIYEASKLTSGVPSRFSGSGSGTDFTLTISSLQPEDFATYYCGGGYSSISDTTFGCGTKVEIKRT
notes: Expressed in HEK293; tested as supernatant; also called Fab-dsFv; A26Fab-645dsFv (start)
Broadly, the Kd is the equilibrium constant for the complex coming apart. As usually defined, the koff is a measure of how fast the partners let go of each other. Usually kon stands for the rate constant with which the complex forms. In the test with human serum albumin [1], B1 showed a Kd of 2.01 nM, a koff of 0.000151 s⁻¹ and a kon of 75100 M⁻¹ s⁻¹. In the test with human serum albumin [2], this molecule yielded a Kd of 3.11 nM, a koff of 0.000212 s⁻¹ and a kon of 68200 M⁻¹ s⁻¹.

B2: Single linker A26Fab-645dsFv (HC-vH linked) (bispecific antibody)
heavy: EVQLVESGGGLVQPGGSLRLSCAASGFTFTNYGIHWIRQAPGKGLEWVASISPSGGLTYYRDSVKGRFTISRDDAKNSPYLQMNSLRAEDTAVYYCATGGEGIFDYWGQGTLVTVSSASTKGPSVFPLAPSSKSTSGGTAALGCLVKDYFPEPVTVSWNSGALTSGVHTFPAVLQSSGLYSLSSVVTVPSSSLGTQTYICNVNHKPSNTKVDKKVEPKSCSGGGGSGGGGTGGGGSEVQLLESGGGLVQPGGSLRLSCAVSGIDLSNYAINWVRQAPGKCLEWIGIIWASGTTFYATWAKGRFTISRDNSKNTVYLQMNSLRAEDTAVYYCARTVPGYSTAPYFDLWGQGTLVTVSS
light: DIQMTQSPSSLSASVGDRVTITCRATQSIYNALAWYQQKPGKAPKLLIYNANTLHTGVPSRFSASGSGTDSTLTISSLQPEDFATYYCQQYYDYPLTFGGGTKVEIKRTVAAPSVFIFPPSDEQLKSGTASVVCLLNNFYPREAKVQWKVDNALQSGNSQESVTEQDSKDSTYSLSSTLTLSKADYEKHKVYACEVTHQGLSSPVTKSFNRGEC
VL: DIQMTQSPSSVSASVGDRVTITCQSSPSVWSNFLSWYQQKPGKAPKLLIYEASKLTSGVPSRFSGSGSGTDFTLTISSLQPEDFATYYCGGGYSSISDTTFGCGTKVEIKRT
notes: Three polypeptides; the free 645dsvL is held to the linked 645dsvH by the disulphide G44C (vH) / G100C (vL); all are the same molecule; also called single linker Fab-dsFv (HC-vH)
With B2, in the test with human serum albumin [3], the Kd was determined as 1 nM, the koff came out at 0.000209 s⁻¹ and the on-rate (kon) turned out to be 209000 M⁻¹ s⁻¹. Further, in the test with human serum albumin [4], the Kd is 1.05 nM, the off-rate (koff) worked out at 0.000207 s⁻¹ and the kon came to 197000 M⁻¹ s⁻¹. In the test with human serum albumin [5], the dissociation constant Kd amounted to 1.11 nM, the off-rate constant (koff) was determined as 0.000234 s⁻¹ and the kon came to 211000 M⁻¹ s⁻¹.

B3: Single linker A26Fab-645dsFv (LC-vL linked) (bispecific antibody)
heavy: EVQLVESGGGLVQPGGSLRLSCAASGFTFTNYGIHWIRQAPGKGLEWVASISPSGGLTYYRDSVKGRFTISRDDAKNSPYLQMNSLRAEDTAVYYCATGGEGIFDYWGQGTLVTVSSASTKGPSVFPLAPSSKSTSGGTAALGCLVKDYFPEPVTVSWNSGALTSGVHTFPAVLQSSGLYSLSSVVTVPSSSLGTQTYICNVNHKPSNTKVDKKVEPKSC
light: DIQMTQSPSSLSASVGDRVTITCRATQSIYNALAWYQQKPGKAPKLLIYNANTLHTGVPSRFSASGSGTDSTLTISSLQPEDFATYYCQQYYDYPLTFGGGTKVEIKRTVAAPSVFIFPPSDEQLKSGTASVVCLLNNFYPREAKVQWKVDNALQSGNSQESVTEQDSKDSTYSLSSTLTLSKADYEKHKVYACEVTHQGLSSPVTKSFNRGECSGGGGSGGGGSGGGGSDIQMTQSPSSVSASVGDRVTITCQSSPSVWSNFLSWYQQKPGKAPKLLIYEASKLTSGVPSRFSGSGSGTDFTLTISSLQPEDFATYYCGGGYSSISDTTFGCGTKVEIKRT
VH: EVQLLESGGGLVQPGGSLRLSCAVSGIDLSNYAINWVRQAPGKCLEWIGIIWASGTTFYATWAKGRFTISRDNSKNTVYLQMNSLRAEDTAVYYCARTVPGYSTAPYFDLWGQGTLVTVSS
notes: Three polypeptides; the free 645dsvH is held to the linked 645dsvL by the disulphide G44C (vH) / G100C (vL); all are the same molecule; also called single linker Fab-dsFv (LC-vL)
For B3, the Kd with human serum albumin [3] came to 3.17 nM; with human serum albumin [4] it was 1.49 nM; with human serum albumin [6] it was 2.46 nM; with human serum albumin [5], 2.31 nM. Moreover, the koff with human serum albumin [3] was 0.000235 s⁻¹; with human serum albumin [4], 0.000188 s⁻¹; in the test with human serum albumin [6], 0.000223 s⁻¹; with human serum albumin [5], 0.000262 s⁻¹. Besides, the kon amounted to 74000 M⁻¹ s⁻¹ with human serum albumin [3], 126000 M⁻¹ s⁻¹ in the test with human serum albumin [4], 91000 M⁻¹ s⁻¹ with human serum albumin [6] and 113000 M⁻¹ s⁻¹ with human serum albumin [5].

B4: A26Fab-645dsscFv (HC-scFv) (bispecific antibody)
heavy: EVQLVESGGGLVQPGGSLRLSCAASGFTFTNYGIHWIRQAPGKGLEWVASISPSGGLTYYRDSVKGRFTISRDDAKNSPYLQMNSLRAEDTAVYYCATGGEGIFDYWGQGTLVTVSSASTKGPSVFPLAPSSKSTSGGTAALGCLVKDYFPEPVTVSWNSGALTSGVHTFPAVLQSSGLYSLSSVVTVPSSSLGTQTYICNVNHKPSNTKVDKKVEPKSCSGGGGTGGGGSEVQLLESGGGLVQPGGSLRLSCAVSGIDLSNYAINWVRQAPGKCLEWIGIIWASGTTFYATWAKGRFTISRDNSKNTVYLQMNSLRAEDTAVYYCARTVPGYSTAPYFDLWGQGTLVTVSSGGGGSGGGGSGGGGSGGGGSDIQMTQSPSSVSASVGDRVTITCQSSPSVWSNFLSWYQQKPGKAPKLLIYEASKLTSGVPSRFSGSGSGTDFTLTISSLQPEDFATYYCGGGYSSISDTTFGCGTKVEIKRT
light: DIQMTQSPSSLSASVGDRVTITCRATQSIYNALAWYQQKPGKAPKLLIYNANTLHTGVPSRFSASGSGTDSTLTISSLQPEDFATYYCQQYYDYPLTFGGGTKVEIKRTVAAPSVFIFPPSDEQLKSGTASVVCLLNNFYPREAKVQWKVDNALQSGNSQESVTEQDSKDSTYSLSSTLTLSKADYEKHKVYACEVTHQGLSSPVTKSFNRGEC
notes: To be checked by chain lengths; also called Fab-dsscFv (HC-scFv)
In the test with human serum albumin [7], B4 showed a Kd of 1.31 nM, a koff of 0.00024 s⁻¹ and a kon of 183000 M⁻¹ s⁻¹.

B5: A26Fab-645dsscFv (LC-scFv) (bispecific antibody)
heavy: EVQLVESGGGLVQPGGSLRLSCAASGFTFTNYGIHWIRQAPGKGLEWVASISPSGGLTYYRDSVKGRFTISRDDAKNSPYLQMNSLRAEDTAVYYCATGGEGIFDYWGQGTLVTVSSASTKGPSVFPLAPSSKSTSGGTAALGCLVKDYFPEPVTVSWNSGALTSGVHTFPAVLQSSGLYSLSSVVTVPSSSLGTQTYICNVNHKPSNTKVDKKVEPKSC
light: DIQMTQSPSSLSASVGDRVTITCRATQSIYNALAWYQQKPGKAPKLLIYNANTLHTGVPSRFSASGSGTDSTLTISSLQPEDFATYYCQQYYDYPLTFGGGTKVEIKRTVAAPSVFIFPPSDEQLKSGTASVVCLLNNFYPREAKVQWKVDNALQSGNSQESVTEQDSKDSTYSLSSTLTLSKADYEKHKVYACEVTHQGLSSPVTKSFNRGECSGGGGSGGGGSEVQLLESGGGLVQPGGSLRLSCAVSGIDLSNYAINWVRQAPGKCLEWIGIIWASGTTFYATWAKGRFTISRDNSKNTVYLQMNSLRAEDTAVYYCARTVPGYSTAPYFDLWGQGTLVTVSSGGGGSGGGGSGGGGSGGGGSDIQMTQSPSSVSASVGDRVTITCQSSPSVWSNFLSWYQQKPGKAPKLLIYEASKLTSGVPSRFSGSGSGTDFTLTISSLQPEDFATYYCGGGYSSISDTTFGCGTKVEIKRT
notes: To be checked by chain lengths; also called Fab-dsscFv (LC-scFv)
In the test with human serum albumin [7], B5 displayed a dissociation constant Kd of 1.29 nM, a koff of 0.000222 s⁻¹ and a kon of 172000 M⁻¹ s⁻¹.
